This is an account of results in patent publication US20190076400A1 (PROTAGONIST THERAPEUTICS, published 2019).

Square brackets hold non-standard residues; d marks the D form. Phe(2,6-Me2,4-CONH2) = Cc1cc(C(N)=O)cc(C)c1C[C@H](N)C(=O)O; Phe(3,4-(OMe)2) = COc1ccc(C[C@H](N)C(=O)O)cc1OC; Phe(3,4-Cl2) = N[C@@H](Cc1ccc(Cl)c(Cl)c1)C(=O)O; Trp(5-OH) = N[C@@H](Cc1c[nH]c2ccc(O)cc12)C(=O)O; Phe(4-COOH) = N[C@@H](Cc1ccc(C(=O)O)cc1)C(=O)O; Phe(4-tBu) = CC(C)(C)c1ccc(C[C@H](N)C(=O)O)cc1; Dip = N[C@H](C(=O)O)C(c1ccccc1)c1ccccc1; Phe(4-F) = N[C@@H](Cc1ccc(F)cc1)C(=O)O; Dmt = Cc1cc(O)cc(C)c1C[C@H](N)C(=O)O; NMeR = CN[C@@H](CCCNC(=N)N)C(=O)O; dNMeF = CN[C@H](Cc1ccccc1)C(=O)O; hPhe = N[C@@H](CCc1ccccc1)C(=O)O; αMeF = C[C@](N)(Cc1ccccc1)C(=O)O; Tic = O=C(O)[C@@H]1Cc2ccccc2CN1; β3hF = N[C@H](CC(=O)O)Cc1ccccc1; N(octyl)Gly = CCCCCCCCNCC(=O)O; Nle = CCCC[C@H](N)C(=O)O; THP = not defined here; Aib = CC(C)(N)C(=O)O; βAla = NCCC(=O)O; Sar = CNCC(=O)O

B1: H-DMT-r-F-HomoPhe-NH2 (peptide)
peptide: H-[Dmt][dR]F[hPhe]-NH2
SMILES: Cc1cc(O)cc(C)c1C[C@H](N)C(=O)N[C@H](CCCNC(=N)N)C(=O)N[C@@H](Cc1ccccc1)C(=O)N[C@@H](CCc1ccccc1)C(N)=O
B2: H-Phe(DMC)-a-G-bhF-Gly-NH2 (peptide)
peptide: H-[Phe(2,6-Me2,4-CONH2)][dA]G[β3hF]G-NH2
SMILES: Cc1cc(C(N)=O)cc(C)c1C[C@H](N)C(=O)N[C@H](C)C(=O)NCC(=O)N[C@H](CC(=O)NCC(N)=O)Cc1ccccc1
B3: H-DMT-r-Tic-Sar-NH2 (peptide)
peptide: H-[Dmt][dR][Tic][Sar]-NH2
SMILES: Cc1cc(O)cc(C)c1C[C@H](N)C(=O)N[C@H](CCCNC(=N)N)C(=O)N1Cc2ccccc2C[C@H]1C(=O)N(C)CC(N)=O
B4: H-Phe(DMC)-(D)Asp-G-bhF-Sar-NH2 (peptide)
peptide: H-[Phe(2,6-Me2,4-CONH2)][dD]G[β3hF][Sar]-NH2
SMILES: Cc1cc(C(N)=O)cc(C)c1C[C@H](N)C(=O)N[C@H](CC(=O)O)C(=O)NCC(=O)N[C@H](CC(=O)N(C)CC(N)=O)Cc1ccccc1
B5: H-DMT-r-F-Phe(3,4-diOMe)-NH2 (peptide)
peptide: H-[Dmt][dR]F[Phe(3,4-(OMe)2)]-NH2
SMILES: COc1ccc(C[C@H](NC(=O)[C@H](Cc2ccccc2)NC(=O)[C@@H](CCCNC(=N)N)NC(=O)[C@@H](N)Cc2c(C)cc(O)cc2C)C(N)=O)cc1OC
B6: H-DMT-r-G-W-NH2 (peptide)
peptide: H-[Dmt][dR]GW-NH2
SMILES: Cc1cc(O)cc(C)c1C[C@H](N)C(=O)N[C@H](CCCNC(=N)N)C(=O)NCC(=O)N[C@@H](Cc1c[nH]c2ccccc12)C(N)=O
B7: H-Phe(DMC)-N(Me)Arg-G-bhF-Sar-NH2 (peptide)
peptide: H-[Phe(2,6-Me2,4-CONH2)][NMeR]G[β3hF][Sar]-NH2
SMILES: Cc1cc(C(N)=O)cc(C)c1C[C@H](N)C(=O)N(C)[C@@H](CCCNC(=N)N)C(=O)NCC(=O)N[C@H](CC(=O)N(C)CC(N)=O)Cc1ccccc1
B8: H-DMT-r-4-tBu-Phe-Sar-NH2 (peptide)
peptide: H-[Dmt][dR][Phe(4-tBu)][Sar]-NH2
SMILES: Cc1cc(O)cc(C)c1C[C@H](N)C(=O)N[C@H](CCCNC(=N)N)C(=O)N[C@@H](Cc1ccc(C(C)(C)C)cc1)C(=O)N(C)CC(N)=O
B9: H-DMT-r-Phe(3,4-diCl)-Sar-NH2 (peptide)
peptide: H-[Dmt][dR][Phe(3,4-Cl2)][Sar]-NH2
SMILES: Cc1cc(O)cc(C)c1C[C@H](N)C(=O)N[C@H](CCCNC(=N)N)C(=O)N[C@@H](Cc1ccc(Cl)c(Cl)c1)C(=O)N(C)CC(N)=O
B10: H-DMT-r-F-(D)N(Me)Phe-NH2 (peptide)
peptide: H-[Dmt][dR]F[dNMeF]-NH2
SMILES: Cc1cc(O)cc(C)c1C[C@H](N)C(=O)N[C@H](CCCNC(=N)N)C(=O)N[C@@H](Cc1ccccc1)C(=O)N(C)[C@H](Cc1ccccc1)C(N)=O
B11: H-DMT-r-F-Octyl Gly-NH2 (peptide)
peptide: H-[Dmt][dR]F[N(octyl)Gly]-NH2
SMILES: CCCCCCCCN(CC(N)=O)C(=O)[C@H](Cc1ccccc1)NC(=O)[C@@H](CCCNC(=N)N)NC(=O)[C@@H](N)Cc1c(C)cc(O)cc1C
B12: H-DMT-r-W-Nle-NH2 (peptide)
peptide: H-[Dmt][dR]W[Nle]-NH2
SMILES: CCCC[C@H](NC(=O)[C@H](Cc1c[nH]c2ccccc12)NC(=O)[C@@H](CCCNC(=N)N)NC(=O)[C@@H](N)Cc1c(C)cc(O)cc1C)C(N)=O
B13: H-DMT-r-F-Nle-NH2 (peptide)
peptide: H-[Dmt][dR]F[Nle]-NH2
SMILES: CCCC[C@H](NC(=O)[C@H](Cc1ccccc1)NC(=O)[C@@H](CCCNC(=N)N)NC(=O)[C@@H](N)Cc1c(C)cc(O)cc1C)C(N)=O
B14: H-DMT-r-DPA-Sar-NH2 (Seq. ID 26) (peptide)
peptide: H-[Dmt][dR][Dip][Sar]-NH2
SMILES: Cc1cc(O)cc(C)c1C[C@H](N)C(=O)N[C@H](CCCNC(=N)N)C(=O)N[C@H](C(=O)N(C)CC(N)=O)C(c1ccccc1)c1ccccc1
B15: H-DMT-r-F-alpha-MePhe-NH2 (peptide)
peptide: H-[Dmt][dR]F[αMeF]-NH2
SMILES: Cc1cc(O)cc(C)c1C[C@H](N)C(=O)N[C@H](CCCNC(=N)N)C(=O)N[C@@H](Cc1ccccc1)C(=O)N[C@@](C)(Cc1ccccc1)C(N)=O
B16: H-DMT-r-G-DPA-NH2 (peptide)
peptide: H-[Dmt][dR]G[Dip]-NH2
SMILES: Cc1cc(O)cc(C)c1C[C@H](N)C(=O)N[C@H](CCCNC(=N)N)C(=O)NCC(=O)N[C@H](C(N)=O)C(c1ccccc1)c1ccccc1
B17: H-DMT-r-Phe(3,4-diOMe)-Sar-NH2 (peptide)
peptide: H-[Dmt][dR][Phe(3,4-(OMe)2)][Sar]-NH2
SMILES: COc1ccc(C[C@H](NC(=O)[C@@H](CCCNC(=N)N)NC(=O)[C@@H](N)Cc2c(C)cc(O)cc2C)C(=O)N(C)CC(N)=O)cc1OC
B18: H-DMT-r-Sar-W-NH2 (peptide)
peptide: H-[Dmt][dR][Sar]W-NH2
SMILES: Cc1cc(O)cc(C)c1C[C@H](N)C(=O)N[C@H](CCCNC(=N)N)C(=O)N(C)CC(=O)N[C@@H](Cc1c[nH]c2ccccc12)C(N)=O
B19: H-DMT-r-F-L-NH2 (peptide)
peptide: H-[Dmt][dR]FL-NH2
SMILES: Cc1cc(O)cc(C)c1C[C@H](N)C(=O)N[C@H](CCCNC(=N)N)C(=O)N[C@@H](Cc1ccccc1)C(=O)N[C@@H](CC(C)C)C(N)=O
B20: H-DMT-a-Val-bhF-Sar-NH2 (peptide)
peptide: H-[Dmt][dA]V[β3hF][Sar]-NH2
SMILES: Cc1cc(O)cc(C)c1C[C@H](N)C(=O)N[C@H](C)C(=O)N[C@H](C(=O)N[C@H](CC(=O)N(C)CC(N)=O)Cc1ccccc1)C(C)C
B21: H-Phe(DMC)-Aib-G-bhF-Sar-NH2 (peptide)
peptide: H-[Phe(2,6-Me2,4-CONH2)][Aib]G[β3hF][Sar]-NH2
SMILES: Cc1cc(C(N)=O)cc(C)c1C[C@H](N)C(=O)NC(C)(C)C(=O)NCC(=O)N[C@H](CC(=O)N(C)CC(N)=O)Cc1ccccc1
B22: H-DMT-r-DPA-Sar-NH2 (Seq. ID 32) (peptide)
peptide: H-[Dmt][dR][Dip][Sar]-NH2
SMILES: Cc1cc(O)cc(C)c1C[C@H](N)C(=O)N[C@H](CCCNC(=N)N)C(=O)N[C@H](C(=O)N(C)CC(N)=O)C(c1ccccc1)c1ccccc1
B23: H-DMT-N(Me)Arg-G-bhF-Sar-NH2 (peptide)
peptide: H-[Dmt][NMeR]G[β3hF][Sar]-NH2
SMILES: Cc1cc(O)cc(C)c1C[C@H](N)C(=O)N(C)[C@@H](CCCNC(=N)N)C(=O)NCC(=O)N[C@H](CC(=O)N(C)CC(N)=O)Cc1ccccc1
B24: H-DMT-r-F-DPA-NH2 (peptide)
peptide: H-[Dmt][dR]F[Dip]-NH2
SMILES: Cc1cc(O)cc(C)c1C[C@H](N)C(=O)N[C@H](CCCNC(=N)N)C(=O)N[C@@H](Cc1ccccc1)C(=O)N[C@H](C(N)=O)C(c1ccccc1)c1ccccc1
B25: H-DMT-r-F-V-NH2 (peptide)
peptide: H-[Dmt][dR]FV-NH2
SMILES: Cc1cc(O)cc(C)c1C[C@H](N)C(=O)N[C@H](CCCNC(=N)N)C(=O)N[C@@H](Cc1ccccc1)C(=O)N[C@H](C(N)=O)C(C)C

Chain of δ-opioid receptor (DOR), Human-ORPD1 (P41143 whole entry, stated change not applied): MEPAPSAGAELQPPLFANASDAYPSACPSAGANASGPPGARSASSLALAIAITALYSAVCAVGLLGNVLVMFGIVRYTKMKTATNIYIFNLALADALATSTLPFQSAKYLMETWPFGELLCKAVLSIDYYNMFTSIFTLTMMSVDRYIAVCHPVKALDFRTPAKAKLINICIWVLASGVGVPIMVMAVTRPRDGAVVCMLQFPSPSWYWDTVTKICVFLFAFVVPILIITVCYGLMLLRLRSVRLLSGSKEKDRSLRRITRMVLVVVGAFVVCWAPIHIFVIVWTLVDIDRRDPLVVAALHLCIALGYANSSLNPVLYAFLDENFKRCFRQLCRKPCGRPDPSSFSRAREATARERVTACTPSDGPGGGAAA

The test addresses δ-opioid receptor (DOR), Human-ORPD1 (human, UniProt P41143 1-372). Nature of the test: cell-based or functional assay.
Turning to H-[Phe(4-COOH)][dA]G[β3hF][Sar]-NH2 [H-Phe(4-COOH)-a-G-bhF-Sar-NH2], the “DOR EC50” value is at most 200 nM.

Turning to B1, the “DOR EC50” value is at most 10 nM.

As for B2, the “DOR EC50” value was at most 10 nM.

As for H-[Dmt][dR][BIP][Sar]-NH2 [H-DMT-r-BIP-Sar-NH2], the “DOR EC50” value was at most 1 nM.

For B3, the “DOR EC50” value is above 200 nM.

Regarding B4, the “DOR EC50” value is at most 1 nM.

As to B5, the “DOR EC50” value is at most 10 nM.

Regarding B6, the “DOR EC50” value was at most 50 nM.

B7: the “DOR EC50” value is at most 200 nM.

As for B8, the “DOR EC50” value was above 200 nM.

As to H-[Dmt][dA][THP][β3hF][Sar]-NH2 (reading uncertain; also: printed as H-DMT-a-THP-bhF-Sar-NH2) [H-DMT-a-THP-bhF-Sar-NH2], the “DOR EC50” value is at most 200 nM.

Take B9: the “DOR EC50” value is at most 50 nM.

Take H-[Phe(2,6-Me2,4-CONH2)][dA]G[Tic][Sar]-NH2 [H-Phe(DMC)-a-G-Tic-Sar-NH2]: the “DOR EC50” value was at most 50 nM.

Consider B10, for which the “DOR EC50” value is at most 50 nM.

On to B11, for which the “DOR EC50” value was at most 200 nM.

As to H-[Phe(2,6-Me2,4-CONH2)]AG[β3hF][Sar]-OH [H-Phe(DMC)-A-G-bhF-Sar-OH], the “DOR EC50” value was at most 200 nM.

In the case of B12, the “DOR EC50” value is at most 50 nM.

Take H-[Phe(3-OH)][dA]G[β3hF][Sar]-NH2 [H-meta-Tyr-a-G-bhF-Sar-NH2]: the “DOR EC50” value was above 200 nM.

With H-[Dmt][dA][βAla][β3hF][Sar]-NH2 [H-DMT-a-bAla-bhF-Sar-NH2], the “DOR EC50” value was at most 200 nM.

B13: the “DOR EC50” value was at most 50 nM.

H-[Phe(4-tetrazolyl)][dA]G[β3hF][Sar]-NH2 [H-Phe(4-tetrazolyl)-a-G-bhF-Sar-NH2]: the “DOR EC50” value was at most 200 nM.

As to B14, the “DOR EC50” value is above 200 nM.

As for B15, the “DOR EC50” value is at most 10 nM.

Turning to H-[Trp(5-OH)][dA]G[β3hF][Sar]-NH2 [H-Trp(5-OH)-a-G-bhF-Sar-NH2], the “DOR EC50” value was at most 200 nM.

As for H-[Phe(4-NHCOCH3)][dA]G[β3hF][Sar]-NH2 [H-Phe(4-NHCOCH3)-a-G-bhF-Sar-NH2], the “DOR EC50” value is at most 200 nM.

On to B16, for which the “DOR EC50” value is above 200 nM.

Turning to B17, the “DOR EC50” value was above 200 nM.

For B18, the “DOR EC50” value was above 200 nM.

For B19, the “DOR EC50” value was at most 50 nM.

On to B20, for which the “DOR EC50” value was at most 200 nM.

For the molecule H-[Dmt][dR]F[Phe(4-F)]-NH2 [H-DMT-r-F-Phe(4-F)-NH2], the “DOR EC50” value is at most 50 nM.

B21: the “DOR EC50” value was at most 50 nM.

Regarding B22, the “DOR EC50” value was above 200 nM.

For B23, the “DOR EC50” value was at most 200 nM.

Turning to B24, the “DOR EC50” value was at most 50 nM.

With B25, the “DOR EC50” value was at most 10 nM.
